Percent CAR-positive cells data for one substance are collected here from patent US20230303708A1.

The experiment deals with hBCMA-41BB-CD3 CAR (CAR-PMC750). As to the kind of experiment: FACS of CAR-T cells stained with biotinylated goat anti-mouse F(ab)'2 and PE-streptavidin, day 9 of expansion.
Chain of hBCMA-41BB-CD3 CAR (CAR-PMC750) (chain, as listed by the source): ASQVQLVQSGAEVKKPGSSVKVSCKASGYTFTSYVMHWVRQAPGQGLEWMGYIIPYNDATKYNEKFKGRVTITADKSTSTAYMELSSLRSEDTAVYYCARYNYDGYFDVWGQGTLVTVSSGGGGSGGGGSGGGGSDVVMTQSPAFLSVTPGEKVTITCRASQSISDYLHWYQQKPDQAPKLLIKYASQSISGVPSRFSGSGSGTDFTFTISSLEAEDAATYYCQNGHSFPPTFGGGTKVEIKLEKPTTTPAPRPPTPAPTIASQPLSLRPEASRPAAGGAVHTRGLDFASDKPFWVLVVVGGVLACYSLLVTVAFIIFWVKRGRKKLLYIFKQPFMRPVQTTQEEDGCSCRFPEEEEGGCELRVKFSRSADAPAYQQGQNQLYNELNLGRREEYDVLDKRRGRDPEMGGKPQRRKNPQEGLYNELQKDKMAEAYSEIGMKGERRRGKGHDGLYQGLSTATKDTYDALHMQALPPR

Substance “biotin-conjugated goat anti-mouse F(ab)'2 (antibody)” had a percent CAR-positive cells of more than 70%.
